Measured values: IntAct's records for PubMed 22087322

B1: Interleukin-10 receptor subunit alpha (Mus musculus), Q61727 (parent)
chain: MLSRLLPFLVTISSLSLEFIAYGTELPSPSYVWFEARFFQHILHWKPIPNQSESTYYEVALKQYGNSTWNDIHICRKAQALSCDLTTFTLDLYHRSYGYRARVRAVDNSQYSNWTTTETRFTVDEVILTVDSVTLKAMDGIIYGTIHPPRPTITPAGDEYEQVFKDLRVYKISIRKFSELKNATKRVKQETFTLTVPIGVRKFCVKVLPRLESRINKAEWSEEQCLLITTEQYFTVTNLSILVISMLLFCGILVCLVLQWYIRHPGKLPTVLVFKKPHDFFPANPLCPETPDAIHIVDLEVFPKVSLELRDSVLHGSTDSGFGSGKPSLQTEESQFLLPGSHPQIQGTLGKEESPGLQATCGDNTDSGICLQEPGLHSSMGPAWKQQLGYTHQDQDDSDVNLVQNSPGQPKYTQDASALGHVCLLEPKAPEEKDQVMVTFQGYQKQTRWKAEAAGPAECLDEEIPLTDAFDPELGVHLQDDLAWPPPALAAGYLKQESQGMASAPPGTPSRQWNQLTEEWSLLGVVSCEDLSIESWRFAHKLDPLDCGAAPGGLLDSLGSNLVTLPLISSLQVEE
B2: Interleukin-10 receptor subunit alpha (Homo sapiens), Q13651 (parent)
chain: MLPCLVVLLAALLSLRLGSDAHGTELPSPPSVWFEAEFFHHILHWTPIPNQSESTCYEVALLRYGIESWNSISNCSQTLSYDLTAVTLDLYHSNGYRARVRAVDGSRHSNWTVTNTRFSVDEVTLTVGSVNLEIHNGFILGKIQLPRPKMAPANDTYESIFSHFREYEIAIRKVPGNFTFTHKKVKHENFSLLTSGEVGEFCVQVKPSVASRSNKGMWSKEECISLTRQYFTVTNVIIFFAFVLLLSGALAYCLALQLYVRRRKKLPSVLLFKKPSPFIFISQRPSPETQDTIHPLDEEAFLKVSPELKNLDLHGSTDSGFGSTKPSLQTEEPQFLLPDPHPQADRTLGNREPPVLGDSCSSGSSNSTDSGICLQEPSLSPSTGPTWEQQVGSNSRGQDDSGIDLVQNSEGRAGDTQGGSALGHHSPPEPEVPGEEDPAAVAFQGYLRQTRCAEEKATKTGCLEEESPLTDGLGPKFGRCLVDEAGLHPPALAKGYLKQDPLEMTLASSGAPTGQWNQPTEEWSLLALSSCSDLGISDWSFAHDLAPLGCVAAPGGLLGSFNSDLVTLPLISSLQSSE

Variants of: B1
Settings: with fbw1a_human BTRC

effect of a mutation on the interaction | Variant
decreasing interaction strength | MLSRLLPFLVTISSLSLEFIAYGTELPSPSYVWFEARFFQHILHWKPIPNQSESTYYEVALKQYGNSTWNDIHICRKAQALSCDLTTFTLDLYHRSYGYRARVRAVDNSQYSNWTTTETRFTVDEVILTVDSVTLKAMDGIIYGTIHPPRPTITPAGDEYEQVFKDLRVYKISIRKFSELKNATKRVKQETFTLTVPIGVRKFCVKVLPRLESRINKAEWSEEQCLLITTEQYFTVTNLSILVISMLLFCGILVCLVLQWYIRHPGKLPTVLVFKKPHDFFPANPLCPETPDAIHIVDLEVFPKVSLELRDSVLHGSTDAGFGAGKPSLQTEESQFLLPGSHPQIQGTLGKEESPGLQATCGDNTDSGICLQEPGLHSSMGPAWKQQLGYTHQDQDDSDVNLVQNSPGQPKYTQDASALGHVCLLEPKAPEEKDQVMVTFQGYQKQTRWKAEAAGPAECLDEEIPLTDAFDPELGVHLQDDLAWPPPALAAGYLKQESQGMASAPPGTPSRQWNQLTEEWSLLGVVSCEDLSIESWRFAHKLDPLDCGAAPGGLLDSLGSNLVTLPLISSLQVEE [S320A;S324A]
disrupting interaction strength | MLSRLLPFLVTISSLSLEFIAYGTELPSPSYVWFEARFFQHILHWKPIPNQSESTYYEVALKQYGNSTWNDIHICRKAQALSCDLTTFTLDLYHRSYGYRARVRAVDNSQYSNWTTTETRFTVDEVILTVDSVTLKAMDGIIYGTIHPPRPTITPAGDEYEQVFKDLRVYKISIRKFSELKNATKRVKQETFTLTVPIGVRKFCVKVLPRLESRINKAEWSEEQCLLITTEQYFTVTNLSILVISMLLFCGILVCLVLQWYIRHPGKLPTVLVFKKPHDFFPANPLCPETPDAIHIVDLEVFPKVSLELRDSVLHGSTDAGFGAGKPSLQTEESQFLLPGSHPQIQGTLGKEESPGLQATCGDNTDAGICLQEPGLHSSMGPAWKQQLGYTHQDQDDSDVNLVQNSPGQPKYTQDASALGHVCLLEPKAPEEKDQVMVTFQGYQKQTRWKAEAAGPAECLDEEIPLTDAFDPELGVHLQDDLAWPPPALAAGYLKQESQGMASAPPGTPSRQWNQLTEEWSLLGVVSCEDLSIESWRFAHKLDPLDCGAAPGGLLDSLGSNLVTLPLISSLQVEE [S320A;S324A;S367A]

Variants of: B2
Settings: with fbw1a_human BTRC

effect of a mutation on the interaction | Variant
decreasing interaction strength | MLPCLVVLLAALLSLRLGSDAHGTELPSPPSVWFEAEFFHHILHWTPIPNQSESTCYEVALLRYGIESWNSISNCSQTLSYDLTAVTLDLYHSNGYRARVRAVDGSRHSNWTVTNTRFSVDEVTLTVGSVNLEIHNGFILGKIQLPRPKMAPANDTYESIFSHFREYEIAIRKVPGNFTFTHKKVKHENFSLLTSGEVGEFCVQVKPSVASRSNKGMWSKEECISLTRQYFTVTNVIIFFAFVLLLSGALAYCLALQLYVRRRKKLPSVLLFKKPSPFIFISQRPSPETQDTIHPLDEEAFLKVSPELKNLDLHGSTDAGFGATKPSLQTEEPQFLLPDPHPQADRTLGNREPPVLGDSCSSGSSNSTDSGICLQEPSLSPSTGPTWEQQVGSNSRGQDDSGIDLVQNSEGRAGDTQGGSALGHHSPPEPEVPGEEDPAAVAFQGYLRQTRCAEEKATKTGCLEEESPLTDGLGPKFGRCLVDEAGLHPPALAKGYLKQDPLEMTLASSGAPTGQWNQPTEEWSLLALSSCSDLGISDWSFAHDLAPLGCVAAPGGLLGSFNSDLVTLPLISSLQSSE [S319A;S323A]
disrupting interaction strength | MLPCLVVLLAALLSLRLGSDAHGTELPSPPSVWFEAEFFHHILHWTPIPNQSESTCYEVALLRYGIESWNSISNCSQTLSYDLTAVTLDLYHSNGYRARVRAVDGSRHSNWTVTNTRFSVDEVTLTVGSVNLEIHNGFILGKIQLPRPKMAPANDTYESIFSHFREYEIAIRKVPGNFTFTHKKVKHENFSLLTSGEVGEFCVQVKPSVASRSNKGMWSKEECISLTRQYFTVTNVIIFFAFVLLLSGALAYCLALQLYVRRRKKLPSVLLFKKPSPFIFISQRPSPETQDTIHPLDEEAFLKVSPELKNLDLHGSTDAGFGATKPSLQTEEPQFLLPDPHPQADRTLGNREPPVLGDSCSSGSSNSTDAGICLQEPSLSPSTGPTWEQQVGSNSRGQDDSGIDLVQNSEGRAGDTQGGSALGHHSPPEPEVPGEEDPAAVAFQGYLRQTRCAEEKATKTGCLEEESPLTDGLGPKFGRCLVDEAGLHPPALAKGYLKQDPLEMTLASSGAPTGQWNQPTEEWSLLALSSCSDLGISDWSFAHDLAPLGCVAAPGGLLGSFNSDLVTLPLISSLQSSE [S319A;S323A;S370A]
decreasing interaction strength | MLPCLVVLLAALLSLRLGSDAHGTELPSPPSVWFEAEFFHHILHWTPIPNQSESTCYEVALLRYGIESWNSISNCSQTLSYDLTAVTLDLYHSNGYRARVRAVDGSRHSNWTVTNTRFSVDEVTLTVGSVNLEIHNGFILGKIQLPRPKMAPANDTYESIFSHFREYEIAIRKVPGNFTFTHKKVKHENFSLLTSGEVGEFCVQVKPSVASRSNKGMWSKEECISLTRQYFTVTNVIIFFAFVLLLSGALAYCLALQLYVRRRKKLPSVLLFKKPSPFIFISQRPSPETQDTIHPLDEEAFLKVSPELKNLDLHGSTDSGFGSTKPSLQTEEPQFLLPDPHPQADRTLGNREPPVLGDSCSSGSSNSTDAGICLQEPSLSPSTGPTWEQQVGSNSRGQDDSGIDLVQNSEGRAGDTQGGSALGHHSPPEPEVPGEEDPAAVAFQGYLRQTRCAEEKATKTGCLEEESPLTDGLGPKFGRCLVDEAGLHPPALAKGYLKQDPLEMTLASSGAPTGQWNQPTEEWSLLALSSCSDLGISDWSFAHDLAPLGCVAAPGGLLGSFNSDLVTLPLISSLQSSE [S370A]
